The target of data set [1] is PS2 S-layer protein of Corynebacterium glutamicum (ex-vivo S-layer) (Corynebacterium glutamicum). The data set is described as follows: cryo-EM structure.
The data set “negative-stain EM” concerns the molecule itself. Briefly: negative-stain EM.

Results on 2 molecules are retold here after article PMC11398520 (bioRxiv, 2024).

In turn, “PS2 S-layer protein of Corynebacterium glutamicum (ex-vivo S-layer) (natural protein)” displayed a stoichiometry N in data set [1] of 6.

B1: PS2 assembly domain (PS2^AD; residues 30 to 483) (domain or fragment)
chain: AQETNPTFNITNGFNDADGSTIQPVGPVNHTEETLRDLTDSTGAYLEEFQNGTVEEIVEAYLQVQASADGFDPSEQAAYEAFEAARVRASQELAASAETITKTRESVAYALKVDQEATAAFEAYRNALRDAAISINPDGSINPDTSINLLIDAANAANRTDRAEIEDYAHLYTQTDIALETPQLAYAFQDLKALQAEVDADFEWLGEFGIDQEDGNYVQRYHLPAVEALKAEVDARVAAIEPLRADSIAKNLEAQKSDVLVRQLFLERATAQRDTLRVVEAIFSTSARYVELYENVENVNVENKTLRQHYSALIPNLFIAAVANISELNAADAEAAAYYLHWDTDLATNDEDEAYYKAKLDFAIETYAKILFNGEVWQEPLAYVQNLDAGARQEAADREAARAADEAYRAEQLRIAQEAADAQKAIAEALAKEAEGNNDNSSDNTETGSSDIGS
Consider B1, for which the binding result in the data set “negative-stain EM” is “binds”.

The stoichiometry N is a count of units in the complex or per binding partner.
